Legend:
[1] = molecular target: the molecule itself; assay: SEC
[2] = molecular target: T1, rRv3167c (TetR-like regulator) (Mycobacterium tuberculosis, UniProt O53317 1-208); assay: ITC; ITC: 10 mM phosphate pH 7.2, 136 mM NaCl, 4 mM KCl, 25 C ([…]; conditions: protein: recombinant; tags: N-terminal 6xHis (pET28c, NdeI/BamHI); chain copies: 2; blunt
T1 sequence: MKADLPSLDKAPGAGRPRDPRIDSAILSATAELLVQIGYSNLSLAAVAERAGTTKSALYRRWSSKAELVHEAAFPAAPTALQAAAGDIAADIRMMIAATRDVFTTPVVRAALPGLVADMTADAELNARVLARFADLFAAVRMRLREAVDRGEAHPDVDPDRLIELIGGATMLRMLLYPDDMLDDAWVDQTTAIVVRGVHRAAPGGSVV

[3] = molecular target: T1, rRv3167c (TetR-like regulator); assay: EMSA; 30 uM protein, 200 nM DNA, 5 mM MgCl2; ITC: 10 mM phosphate pH 7.2, 136 mM NaCl, 4 mM KCl, 25 C ([…]; conditions: protein: recombinant; tags: N-terminal 6xHis (pET28c, NdeI/BamHI); chain copies: 2; blunt

B1: recombinant Rv3167c (rRv3167c), N-terminal 6-histidine tag (natural protein)
chain: T1 sequence
notes: also called purified Rv3167c
With B1 the “stoichiometry N” value [1] was 2.

B2: palRv3167c (dsDNA)
DNA 1: TAACGCTACCTAAAGTAGCGTAA
DNA 2: TTACGCTACTTTAGGTAGCGTTA
Work on B2 yielded a Kd [2] of 12.3 ± 3.2 µM.

B3: randomized control DNA (Negative+/-) (dsDNA)
DNA 1: AGCCTTGCAGGCTAATCGGTAGCTA
DNA 2: TAGCTACCGATTAGCCTGCAAGGCT
B3: no binding [3].

From publication PMC5340868 (mBio, 2017)
